Tests used:
[1] = target: SARS-CoV2 S1 protein (S1 domain of the spike protein) (SARS-Cov-2, UniProt P0DTC2 16-685)
[2] = target: SARS-CoV2 RBD (receptor binding domain of the spike protein) (SARS-Cov-2, UniProt P0DTC2 319-541)

Binder | Kd [1] | Kd [2]
212522 (SEQ ID NO: 19) (designed binder) IAAKFDEAQQAAFYEILHLPNLTELQRNWFIQLLRDDPSVSLQVLGHAQYLNDSQAPKIAAKFDEAQQYAFYQILHLHNLTEEQRNAFIQSLRDDPSVSHEVLGEAKKLNESQAPK | 24.1 nM | 27.1 nM
212434 (SEQ ID NO: 1) (designed binder) NAAVLDIAQHSATEEIWWLPNLTKQQKVWFIMSLTQDPSVSKEVLGEAQKLNDSQAPK | 3.8 nM | 10.2 nM

From US20240117010A1 (NAVIGO PROTEINS, published 2024)
